# Patent US10858688B2, “Observation method using binding and dissociation probe” (KYOTO UNIVERSITY, priority 2015, dated 2020)
# B1: Plectin-1 4066-4364: EGFP fused (N terminus) human Plectin-1 fragment, residues 4066-4364 of sequence number 8 (protein, listed as Homo sapiens)
# chain: LEGTSCIAGVFVDATKERLSVYQAMKKGIIRPGTAFELLEAQAATGYVIDPIKGLKLTVEEAVRMGIVGPEFKDKLLSAERAVTGYKDPYSGKLISLFQAMKKGLILKDHGIRLLEAQIATGGIIDPEESHRLPVEVAYKRGLFDEEMNEILTDPSDDTKGFFDPNTEENLTYLQLMERCITDPQTGLCLLPLKEKKRERKTSSKSSVRKRRVVIVDPETGKEMSVYEAYRKGLIDHQTYLELSEQECEWEEITISSSDGVVKSMIIDRRSGRQYDIDDAIAKNLIDRSALDQYRAGTL
# modifications: N-terminal EGFP fusion
# B2: Plectin-1 3777-4684: EGFP fused (N terminus) human Plectin-1 fragment, residues 3777-4684 of sequence number 8 (protein, listed as Homo sapiens)
# chain: YDYVRRRLTAEDLFEARIISLETYNLLREGTRSLREALEAESAWCYLYGTGSVAGVYLPGSRQTLSIYQALKKGLLSAEVARLLLEAQAATGFLLDPVKGERLTVDEAVRKGLVGPELHDRLLSAERAVTGYRDPYTEQTISLFQAMKKELIPTEEALRLLDAQLATGGIVDPRLGFHLPLEVAYQRGYLNKDTHDQLSEPSEVRSYVDPSTDERLSYTQLLRRCRRDDGTGQLLLPLSDARKLTFRGLRKQITMEELVRSQVMDEATALQLREGLTSIEEVTKNLQKFLEGTSCIAGVFVDATKERLSVYQAMKKGIIRPGTAFELLEAQAATGYVIDPIKGLKLTVEEAVRMGIVGPEFKDKLLSAERAVTGYKDPYSGKLISLFQAMKKGLILKDHGIRLLEAQIATGGIIDPEESHRLPVEVAYKRGLFDEEMNEILTDPSDDTKGFFDPNTEENLTYLQLMERCITDPQTGLCLLPLKEKKRERKTSSKSSVRKRRVVIVDPETGKEMSVYEAYRKGLIDHQTYLELSEQECEWEEITISSSDGVVKSMIIDRRSGRQYDIDDAIAKNLIDRSALDQYRAGTLSITEFADMLSGNAGGFRSRSSSVGSSSSYPISPAVSRTQLASWSDPTEETGPVAGILDTETLEKVSITEAMHRNLVDNITGQRLLEAQACTGGIIDPSTGERFPVTDAVNKGLVDKIMVDRINLAQKAFCGFEDPRTKTKMSAAQALKKGWLYYEAGQRFLEVQYLTGGLIEPDTPGRVPLDEALQRGTVDARTAQKLRDVGAYSKYLTCPKTKLKISYKDALDRSMVEEGTGLRLLEAAAQSTKGYYSPYSVSGSGSTAGSRTGSRTGSRAGSRRGSFDATGSGFSMTFSSSSYSSSGYGRRYASGSSASLGGPESAVA
# modifications: N-terminal EGFP fusion
# B3: Plectin-1 4022-4364: EGFP fused (N terminus) human Plectin-1 fragment, residues 4022-4364 of sequence number 8 (protein, listed as Homo sapiens)
# chain: FRGLRKQITMEELVRSQVMDEATALQLREGLTSIEEVTKNLQKFLEGTSCIAGVFVDATKERLSVYQAMKKGIIRPGTAFELLEAQAATGYVIDPIKGLKLTVEEAVRMGIVGPEFKDKLLSAERAVTGYKDPYSGKLISLFQAMKKGLILKDHGIRLLEAQIATGGIIDPEESHRLPVEVAYKRGLFDEEMNEILTDPSDDTKGFFDPNTEENLTYLQLMERCITDPQTGLCLLPLKEKKRERKTSSKSSVRKRRVVIVDPETGKEMSVYEAYRKGLIDHQTYLELSEQECEWEEITISSSDGVVKSMIIDRRSGRQYDIDDAIAKNLIDRSALDQYRAGTL
# modifications: N-terminal EGFP fusion
# B4: Plectin-1 3777-4364: EGFP fused (N terminus) human Plectin-1 fragment, residues 3777-4364 of sequence number 8 (protein, UniProt Q15149 3777-4364, looked up, fragment)
# chain: YDYVRRRLTAEDLFEARIISLETYNLLREGTRSLREALEAESAWCYLYGTGSVAGVYLPGSRQTLSIYQALKKGLLSAEVARLLLEAQAATGFLLDPVKGERLTVDEAVRKGLVGPELHDRLLSAERAVTGYRDPYTEQTISLFQAMKKELIPTEEALRLLDAQLATGGIVDPRLGFHLPLEVAYQRGYLNKDTHDQLSEPSEVRSYVDPSTDERLSYTQLLRRCRRDDGTGQLLLPLSDARKLTFRGLRKQITMEELVRSQVMDEATALQLREGLTSIEEVTKNLQKFLEGTSCIAGVFVDATKERLSVYQAMKKGIIRPGTAFELLEAQAATGYVIDPIKGLKLTVEEAVRMGIVGPEFKDKLLSAERAVTGYKDPYSGKLISLFQAMKKGLILKDHGIRLLEAQIATGGIIDPEESHRLPVEVAYKRGLFDEEMNEILTDPSDDTKGFFDPNTEENLTYLQLMERCITDPQTGLCLLPLKEKKRERKTSSKSSVRKRRVVIVDPETGKEMSVYEAYRKGLIDHQTYLELSEQECEWEEITISSSDGVVKSMIIDRRSGRQYDIDDAIAKNLIDRSALDQYRAGTL
# modifications: N-terminal EGFP fusion
# B5: Plectin-1 3777-4313: EGFP fused (N terminus) human Plectin-1 fragment, residues 3777-4313 of sequence number 8 (protein, UniProt Q15149 3777-4313, looked up, fragment)
# chain: YDYVRRRLTAEDLFEARIISLETYNLLREGTRSLREALEAESAWCYLYGTGSVAGVYLPGSRQTLSIYQALKKGLLSAEVARLLLEAQAATGFLLDPVKGERLTVDEAVRKGLVGPELHDRLLSAERAVTGYRDPYTEQTISLFQAMKKELIPTEEALRLLDAQLATGGIVDPRLGFHLPLEVAYQRGYLNKDTHDQLSEPSEVRSYVDPSTDERLSYTQLLRRCRRDDGTGQLLLPLSDARKLTFRGLRKQITMEELVRSQVMDEATALQLREGLTSIEEVTKNLQKFLEGTSCIAGVFVDATKERLSVYQAMKKGIIRPGTAFELLEAQAATGYVIDPIKGLKLTVEEAVRMGIVGPEFKDKLLSAERAVTGYKDPYSGKLISLFQAMKKGLILKDHGIRLLEAQIATGGIIDPEESHRLPVEVAYKRGLFDEEMNEILTDPSDDTKGFFDPNTEENLTYLQLMERCITDPQTGLCLLPLKEKKRERKTSSKSSVRKRRVVIVDPETGKEMSVYEAYRKGLIDHQTYLELSEQEC
# modifications: N-terminal EGFP fusion
# Tested on: intermediate filament
# Test: Localization test of probe candidates (integrated SiMS images)
# Assay type: cell-based, Xenopus laevis
# Design: key: “localization” is positive (P) when above criterion (1) is met
# Details: fixed, permeabilized XTC cell; lysate supernatant of EGFP fused probe; TIRF, 10000 frames
# Experimental: HEK (Human embryonic kidney)-293F cells were transfected with a plasmid encoding a probe candidate protein tagged with FLAG-EGFP or 3×FLAG-EGFP. […] Centrifugal separation was performed on the lysate and the supernatant liquid was collected. In order to perform screening for a probe for IRIS, the binding capacity of a probe candidate in the supernatant liquid with respect to the structure of an XCT cell that was fixed with paraformaldehyde (PFA) and that received a permeabilization process was tested. The appearance and disappearance of single molecule speckles (Single-molecule speckles, SiMS) in the structure was tested. Screening was performed for a probe for IRIS in accordance with the following criteria:
# (1) It is possible to confirm a distribution of target substances in the structure in an image resulting from adding SiMS images;
# The localization test of the above (1), whose result is shown in table 1, was performed in the following procedures. First, the supernatant liquid of lysate of a cell that expressed each probe candidate was brought into contact with an XCT cell that was fixed on a coverglass and that received a permeabilization process. […] The obtained speckle images of 10000 frames were integrated so as to confirm whether or not a distribution of target substances in the cell (microtubule, intermediate filament, focal adhesion or actin filament) was able to be confirmed. When a distribution of a target substances was able to be confirmed, the result of the localization test was treated as P (positive).
row,Molecule,LOCALIZATION
1,B1,P
2,B2,P
3,B3,P
4,B4,P
5,B5,P

# Tested on: intermediate filament
# Test: Washability test of probe candidates
# Assay type: cell-based, Xenopus laevis
# Design: key: “washability” is positive (P) when above criterion (2) is met
# Details: speckles equal to or less than about 10% after switching imaging solution 10 to 20 times
# Experimental: (2) It is possible to wash and remove a probe after SiMS imaging (imaging step);
# The […] of the above (2), whose result is shown in table 1, was performed in the following procedures. […] This switching of imaging solution was conducted slowly so that the observation position would not shift. Next, an imaging solution not containing a probe and not containing the active oxygen-scavenging mix was switched 10 to 20 times. After the switching, for confirmation, for an XCT cell sample in the observation chamber, speckle images of 10 frames were picked up under a similar condition to that of the localization test described in the previous paragraph, and when the number of speckles confirmed in the speckle images (i.e., the number of probes that had bound) became sufficiently smaller (equal to or less than about 10%) than the number of the speckles in the speckle images before the washing operation, washing was determined to be possible and the result was treated as P (positive).
row,Molecule,WASHABILITY
1,B1,P
2,B2,P
3,B3,P
4,B4,P
5,B5,P

# Tested on: intermediate filament
# Test: Measurement of binding half-life of probe-target complex
# Design: species or system Xenopus laevis
# Details: fixed XTC cell, single exponential fit
# Excerpt: A probe and a target substance have the following binding characteristics. […] The above half-life herein is preferably a half-life of a probe-target complex formed by binding between a probe and a target substance in a case when a medium containing a probe and a sample containing a target substance that is to be observed are brought into contact under a condition for performing an imaging step. […] Measurement procedures for the half-life are as below. […] Ndissociation is a cumulative relative frequency of a probe that dissociated. A cumulative relative frequency is a ratio of the speckles that disappeared within a given period of time to the total number of measured speckles (i.e. probes) (i.e. probes that dissociated within a given period of time), and represents the total number as 1. Then, by fitting the above complementary cumulative relative frequency function with an exponent function, that half-life is calculated.
# The measurement of binding half-life, whose result is shown in table 1, was performed in the following procedures. Speckle images of 10000 frames picked up in the localization test were used in order to measure a period of time between the appearance of a probe that has bound to a target in a speckle image and disappearance through dissociation in a semi-manual mode by using Speckle TrackerJ, an ImageJ plug-in. In case of for example picking up of images with an exposure time of 50 ms and at a frame rate of 20 Hz, it is assumed that a period of time between the appearance and disappearance of a speckle that is observed in only one of consecutive frames is 50 ms and a period of time between the appearance and disappearance of a speckle observed in only two consecutive frames is 100 ms. […] Ndissociation is a cumulative relative frequency of probes that dissociated. Then, by fitting the complementary cumulative relative frequency function with an exponent function, the half-life was calculated. However, the binding half-life with respect to an actin filament of Atto488-Lifeact was measured by using a method that is described in detail in the section for FIG. 9 in the Brief Description of the Drawings.
row,HALF-LIFE [s],Molecule
1,7.7,B1
2,0.457,B2
3,0.103,B3
4,0.059,B4
5,0.052,B5

# Tested on: intermediate filament
# Test: IRIS image test (reconstruction image)
# Assay type: cell-based, Xenopus laevis
# Design: key: “IRIS image” is positive (P) when above criterion (3) is met
# Details: reconstruction from 10000 frames with DAOSTORM
# Experimental: […] It is possible to reconstruct an image of a target substance by integrating the central positions of the respective speckles. The IRIS image test of the above (3) whose result is described in table 1 was performed in the following procedures. By using all the speckle images of 10000 frames picked up in the localization test, the central point of a probe that has bound to a target in each frame of the speckle images was determined with nanometer accuracy by using DAOSTORM. By adding a large number of pieces of central point information in the fluorescence images of 10000 frames, a reconstruction image (observation image) was generated. Whether or not a distribution of a target molecule was able to be observed in that reconstruction image was determined, and when a distribution of a target molecule was observed, the result was treated as P (positive).
row,Molecule,IRIS IMAGE
1,B2,P
2,B3,P
3,B4,P
4,B5,P
